According to article PMC7212365:

Tests used:
[1] = target: HER2 binding monomeric IgA1 produced in HEK293F cells (human); assay: SPR; Biacore T200; IgA variants immobilised on a Protein L sensor chip with the Fc-domain pointing toward the solution; five increasing concentrations of FcαRI injected in single-cycle kinetic experiments; 1:1 binding model; three independent kinetic runs
[2] = target: HER2 binding dimeric IgA1 produced in N. benthamiana ΔXT/FT plants (human) (UniProt P01591); assay: as above
[3] = target: HER2 binding dimeric IgA1 produced in HEK293F cells (human) (UniProt P01591); assay: as above
[4] = target: HER2 binding monomeric IgA1 produced in N. benthamiana ΔXT/FT plants (human); assay: as above
[5] = target: HER2 binding dimeric IgA2m(2) produced in HEK293F cells (human) (UniProt P01591); assay: as above
[6] = target: HER2 binding monomeric IgA2m(2) produced in HEK293F cells (human); assay: as above
[7] = target: HER2 binding dimeric IgA2m(2) produced in N. benthamiana ΔXT/FT plants (human) (UniProt P01591); assay: as above
[8] = target: HER2 binding monomeric IgA2m(2) produced in N. benthamiana ΔXT/FT plants (human); assay: as above
[9] = target: Dimeric HER2 binding IgA2m(2) produced in HEK293F cells (human) (UniProt P01591); assay: SPR; Biacore T200; IgA variants immobilized on a Protein L sensor chip; five increasing concentrations of FcαRI injected in single-cycle kinetic experiments; 1:1 binding model; three independent kinetic runs
[10] = target: Dimeric HER2 binding IgA1 produced in HEK293F cells (human) (UniProt P01591); assay: as above
[11] = target: Dimeric HER2 binding IgA2m(2) produced in N. benthamiana ΔXT/FT (human) (UniProt P01591); assay: as above
[12] = target: Monomeric HER2 binding IgA2m(2) produced in N. benthamiana ΔXT/FT (human); assay: as above
[13] = target: Monomeric HER2 binding IgA2m(2) produced in HEK293F cells (human); assay: as above
[14] = target: Monomeric HER2 binding IgA1 produced in N. benthamiana ΔXT/FT (human); assay: as above
[15] = target: Monomeric HER2 binding IgA1 produced in HEK293F cells (human); assay: as above
[16] = target: Dimeric HER2 binding IgA1 produced in N. benthamiana ΔXT/FT (human) (UniProt P01591); assay: as above

## Recombinant soluble FcαRI (from UniProt P24071 22-227) (receptor)
[1]
  Kd: 110 nM
  stoichiometry N: 1
[2]
  stoichiometry N: 1
[3]
  stoichiometry N: 1
[4]
  Kd: 110 nM
  stoichiometry N: 1
[5]
  stoichiometry N: 1
[6]
  Kd: 170 nM
  stoichiometry N: 1
[7]
  stoichiometry N: 1
[8]
  Kd: 170 nM
  stoichiometry N: 1
[9]
  Kd: 182 nM
  koff: 0.049 s⁻¹
  kon: 260000 M⁻¹ s⁻¹
[10]
  Kd: 144 nM
  koff: 0.055 s⁻¹
  kon: 360000 M⁻¹ s⁻¹
[11]
  Kd: 226 nM
  koff: 0.049 s⁻¹
  kon: 270000 M⁻¹ s⁻¹
[12]
  Kd: 160 nM
  koff: 0.055 s⁻¹
  kon: 340000 M⁻¹ s⁻¹
[13]
  Kd: 157 nM
  koff: 0.05 s⁻¹
  kon: 310000 M⁻¹ s⁻¹
[14]
  Kd: 103 nM
  koff: 0.061 s⁻¹
  kon: 580000 M⁻¹ s⁻¹
[15]
  Kd: 109 nM
  koff: 0.05 s⁻¹
  kon: 440000 M⁻¹ s⁻¹
[16]
  Kd: 151 nM
  koff: 0.057 s⁻¹
  kon: 370000 M⁻¹ s⁻¹
